Source: publication PMC12636523

Biological target: cleaved SVS-Dlp (SVS-Dlp coexpressed with Mmp2-FLAG, cleaved in the N-terminal polypeptide) (Drosophila)
Assay: co-IP; S2R+ cells cotransfected with SVS-dlp and a Wnt, with or without Mmp2-FLAG; clarified lysate (2 mM Tris HCl, 150 mM NaCl, 1% NP-40 substitute, 1 mM EDTA, 5% glycerol, pH 7.4) on GFP-Trap Magnetic Agarose beads, 30 min at 4°C; Western blot under reducing conditions

fold increase of Wnt pulled down against uncleaved Dlp (median) [fold] | fold increase of Wg pulled down, normalized to the amount of Dlp, against uncleaved Dlp (median) [fold] | Molecule
2.7 | – | Wnt6-3XHA (ligand)
5.9 | – | Wnt4-3XFLAG (ligand) QVRNEDQLLMVGQNGDLDSSNPAIHHQQHQQHQQHQQHQQHQSNHNLNNGNMNSTILNTLMGNNAGQVVNSSPGGGGSMINQLGSSTSSVPSVIGGGVGSVGNPWHSAVGLGVPGNGMGLPSSHGLGGNMGSHPHGHALAGLAKLGIIVPGGQGLPGNLGYGGTMLNGGGVGGAAGMGLGIGSNTNNMDMQQGLYNEHFISEHTVMAVFTSQGQVGGPCRYMPATRRQNHQCRKETGLPGTLSEARRLATTHCEEQFRYDRWNCSIETRGKRNIFKKLYKETAFVHALTAAAMTHSIARACAEGRMTKCSCGPKKHNREAQDFQWGGCNDNLKHGKRVTRSFLDLRGGDGDEVSEILRHDSEVGIEAVSSQMMDKCKCHGVSGSCSMKTCWKKMADFNATATLLRQKYNEAIRKAPNQRSMRQVSSSRMKKPKQRRKKPQQSQYTTLYYLETSPSYCAVTKDRQCLHPDNCGTLCCGRGYTTQVVKQVEKCRCRFNNGRCCQLICDYCQRLENKYFCK
6.2 | – | Wnt2-3XHA (ligand) FTSVMLCGRIPGLTPGQRNMCREMPDALIALGEGHQLGAQECQHQFRGHRWNCSEVWQRNVFAHVIPTASREAAYTYAIASAGAAYAVTAACARGNISTCGCDVRHKATPTGGGTPDEPWKWGGCSADVDFGMRYARRFMDARELERDSRTLMNLHNNRAGRTLVKKMLRTDCKCHGVSGSCVMKTCWKSLPPFRLVGDRLMLKYQKAKTVQAVKGKRGLRLVLSRKKHAGTARAQKPVLDWPKRMELIYLEASPNYCERSLQTGSQGTSGRTCQRTGHGPQSCDLLCCGRGHNTQHIRRTTQCRCQFRWCCEVKCDECDESYEEFTCK
– | 2.7 | Wg-HA (Wingless with 3XHA tag) (ligand) GSSLSQVEGKQKSGRGRGSMWWGIAKVGEPNNITPIMYMDPAIHSTLRRKQRRLVRDNPGVLGALVKGANLAISECQHQFRNRRWNCSTRNFSRGKNLFGKIVDRGCRETSFIYAITSAAVTHSIARACSEGTIESCTCDYSHQSRSPQANHQAGSVAGVRDWEWGGCSDNIGFGFKFSREFVDTGERGRNLREKMNLHNNEAGRAHVQAEMRQECKCHGMSGSCTVKTCWMRLANFRVIGDNLKARFDGATRVQVTNSLRATNALAPVSPNAAGSNSVGSNGLIIPQSGLVYGEEEERMLNDHMPDILLENSHPISKIHHPNMPSPNSLPQAGQRGGRNGRRQGRKHNRYHFQLNPHNPEHKPPGSKDLVYLEPSPSFCEKNLRQGILGTHGRQCNETSLGVDGCGLMCCGRGYRRDEVVVVERCACTFHWCCEVKCKLCRTKKVIYTCL
